Test results from patent US20190106487A1 (Sanofi, published 2019).
Changes are numbered by the printed parent chain. Values belong to the binder of their own block, whether it stands above or below them.

Tests used:
[1] = target: T1, rhIL-1RAcP/Fc Chimera (human, UniProt Q9NPH3 21-359); experiment: ELISA, primary supernatant, coated hu-IL-1RAcP-Fc
T1 construct: also called P013_03; P013-03
T1 sequence (looked up): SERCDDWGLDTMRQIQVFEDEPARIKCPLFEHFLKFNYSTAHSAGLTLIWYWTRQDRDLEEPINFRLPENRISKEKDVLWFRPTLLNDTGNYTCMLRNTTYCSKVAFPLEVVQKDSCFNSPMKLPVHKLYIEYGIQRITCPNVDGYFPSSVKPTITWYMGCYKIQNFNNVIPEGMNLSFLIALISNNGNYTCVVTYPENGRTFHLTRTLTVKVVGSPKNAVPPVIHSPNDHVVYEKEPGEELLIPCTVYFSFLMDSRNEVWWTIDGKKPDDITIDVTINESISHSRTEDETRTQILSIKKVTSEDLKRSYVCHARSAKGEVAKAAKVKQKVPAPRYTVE
Description: Microtiter plates were coated IL-1RACP and/or IL12Rβ1 protein (recombinant Fc chimeric conjugates of human IL-1RACP or IL12Rβ1). After a blocking process, specific antibodies from B-cell supernatants bind to the targets and are then detected by a POD-labeled anti-rabbit IgG antibody. The IL12Rβ1 binding was used as a counterscreen. IL-1RACP protein was tagged with a linker, huFc and His like the IL12Rβ1 protein. Antibodies which bind to the tag were positive in both assays, whereas antigen specific antibodies just bound to IL-1RACP and not to IL12Rβ1.
12.5 μL 0.5 μg/mL IL-1RACP protein in PBS was transferred to a microtiter plate, incubated and washed 3× with Wash Buffer. 90 μL Block Buffer was added to each well, incubated and washed. 12.5 μl Standard Antibody (rabbit mAb against IL-1RAcP, anti IL12Rbeta1 antibody: IL-12Rbeta1 antibody; GeneTex; Cat. No. GTX103917) or sample diluted in ELISA buffer was added, incubated and washed. 12.5 μl 1:5000 POD-Antibody (Anti-rabbit IgG, peroxidase-linked species-specific Fab2 fragment (from donkey) (ECL); assay dilution: 1:5000) in Elisa Buffer was added, incubated and washed. 15 μl TMB was added and 15 μl HCl was added after sufficient development. Absorbance (Optical Density O.D.) was read at 450 nm/620 nm.

[2] = target: T2, human IL-1RAcP on 293T/17-FR cells (human, UniProt Q9NPH3 21-570); experiment: cell-based or functional assay
T2 sequence (looked up): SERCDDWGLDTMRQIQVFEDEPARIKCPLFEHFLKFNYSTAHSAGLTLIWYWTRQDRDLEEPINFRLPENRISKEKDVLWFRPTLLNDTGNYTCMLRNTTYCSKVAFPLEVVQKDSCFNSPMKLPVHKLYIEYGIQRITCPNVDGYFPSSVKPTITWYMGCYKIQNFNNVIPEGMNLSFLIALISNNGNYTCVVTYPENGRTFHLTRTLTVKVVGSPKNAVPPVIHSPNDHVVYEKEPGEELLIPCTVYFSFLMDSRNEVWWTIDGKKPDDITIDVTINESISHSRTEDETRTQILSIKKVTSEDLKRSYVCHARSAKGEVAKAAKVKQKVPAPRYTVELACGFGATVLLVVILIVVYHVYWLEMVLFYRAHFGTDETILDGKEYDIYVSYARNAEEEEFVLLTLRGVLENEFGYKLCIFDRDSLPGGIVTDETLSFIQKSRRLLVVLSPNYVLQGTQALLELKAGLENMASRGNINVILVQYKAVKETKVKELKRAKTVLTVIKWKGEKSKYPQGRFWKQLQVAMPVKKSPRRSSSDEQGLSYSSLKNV

[3] = target: T1, rhIL-1RAcP/Fc Chimera; experiment: ELISA, recombinant purified mAb

hu-IL1RaP ELISA (OD) [1]: 2.9 OD | functional reporter gene assay (% inhibition), 0.04 µg/mL mAb [2]: -1% | functional reporter gene assay (% inhibition), 0.2 µg/mL mAb [2]: 0% | functional reporter gene assay (% inhibition), 1 µg/mL mAb [2]: 4% | functional reporter gene assay (% inhibition), 5 µg/mL mAb [2]: -18% | primary supernatant functional assay (% inh.), NF-kB luciferase reporter [2]: 27%
B1: P013.S.02.B.G04 (antibody, V domains shown)
VH: QSLEESGGRLVTPGTPLTLTCTVSGFSLSRCAMIWVRQAPGKGLEWIGFIGRGGSTWYASWVNGRFTISKTSTTVDLKITSPTTEDTATYFCARDGDYSDYYTFDLWGQGTLVTVSS
VL: DVVMTQTPASVSERVGGTVTIKCQASQSIGSNLAWYQQKPGQPPKLLIYGASNLESGVPSRFSGSGSGTEFTLSISGVQSADAATYYCQCSGYDTTGVFPFGGGSEVVVK
notes: rabbit monoclonal antibody; also called P013.A.00015.A11

EC50 [3]: 0.817 µg/mL | hu-IL1RaP ELISA (OD) [1]: 3.3 OD | functional reporter gene assay (% inhibition), 0.04 µg/mL mAb [2]: 21% | functional reporter gene assay (% inhibition), 0.2 µg/mL mAb [2]: 50% | functional reporter gene assay (% inhibition), 1 µg/mL mAb [2]: 82% | functional reporter gene assay (% inhibition), 5 µg/mL mAb [2]: 93% | primary supernatant functional assay (% inh.), NF-kB luciferase reporter [2]: 81%
B2: P013.S.01.B.G05 (antibody, V domains shown)
VH: LEQSGGGAEGGLVKPGGSLELCCKASGFSLSSAYWICWVRQAPGKGLEWVGCIYADSSSITYYASWVNGRFTLSRDIDQSTGCLQLNSLTAADTAMYYCARDYGGSGYNFNLWGQGTLVTVSS
VL: ALVMTQTPSPVSAAVGGTVTISCQASEDIYSNLAWYQQKRGQPPKLLIYYASTLASGVPSRFSGSGSGTEFTLTISGLQSDDAATYYCLGVCTYINANGWDNAFGGGTEVVVK
notes: rabbit monoclonal antibody; also called P013.A.00088.C10

EC50 [3]: 0.049 µg/mL | hu-IL1RaP ELISA (OD) [1]: 3.7 OD | functional reporter gene assay (% inhibition), 0.04 µg/mL mAb [2]: 43% | functional reporter gene assay (% inhibition), 0.2 µg/mL mAb [2]: 52% | functional reporter gene assay (% inhibition), 1 µg/mL mAb [2]: 41% | functional reporter gene assay (% inhibition), 5 µg/mL mAb [2]: 72% | primary supernatant functional assay (% inh.), NF-kB luciferase reporter [2]: 71%
B3: P013.S.01.B.G02 (antibody, V domains shown)
VH: QSVEESGGRLVTPGTPLTLTCTVSGFSLSSYYMSWVRQAPGKGLEWIGYIYAAGPITYYATWAKGRFTISKTSTTVDLKITSPTTEDTATYFCVRDGSGSGTYGYNGMDLWGPGTLVTVSS
VL: AYDMTQTPASVEAAVGGTVNIKCQASQSISNWLAWYQQKPGQRPKLLIYRASTLASGVSSRFKGSGSGTQFTLTISGVESADAATYYCQQGASTTDVDNVFGGGTEVVVK
notes: rabbit monoclonal antibody; also called P013.A.00085.B11

EC50 [3]: 0.104 µg/mL | hu-IL1RaP ELISA (OD) [1]: 3.5 OD | functional reporter gene assay (% inhibition), 0.04 µg/mL mAb [2]: 28% | functional reporter gene assay (% inhibition), 0.2 µg/mL mAb [2]: 49% | functional reporter gene assay (% inhibition), 1 µg/mL mAb [2]: 59% | functional reporter gene assay (% inhibition), 5 µg/mL mAb [2]: 60% | primary supernatant functional assay (% inh.), NF-kB luciferase reporter [2]: 43%
B4: P013.S.01.B.H03 (antibody, V domains shown)
VH: B3 VH
VL: B3 VL with R43P
notes: rabbit monoclonal antibody; also called P013.A.00045.A02

EC50 [3]: 0.073 µg/mL | hu-IL1RaP ELISA (OD) [1]: 3.8 OD | functional reporter gene assay (% inhibition), 0.04 µg/mL mAb [2]: 7% | functional reporter gene assay (% inhibition), 0.2 µg/mL mAb [2]: 45% | functional reporter gene assay (% inhibition), 1 µg/mL mAb [2]: 67% | functional reporter gene assay (% inhibition), 5 µg/mL mAb [2]: 87% | primary supernatant functional assay (% inh.), NF-kB luciferase reporter [2]: 67%
B5: P013.S.02.B.A01 (antibody, V domains shown)
VH: B3 VH
VL: B3 VL with N20T
notes: rabbit monoclonal antibody; also called P013.A.00087.A07

hu-IL1RaP ELISA (OD) [1]: 3.4 OD | functional reporter gene assay (% inhibition), 0.04 µg/mL mAb [2]: 45% | functional reporter gene assay (% inhibition), 0.2 µg/mL mAb [2]: 59% | functional reporter gene assay (% inhibition), 1 µg/mL mAb [2]: 80% | functional reporter gene assay (% inhibition), 5 µg/mL mAb [2]: 93% | primary supernatant functional assay (% inh.), NF-kB luciferase reporter [2]: 76%
B6: P013.S.01.B.F02 (antibody, V domains shown)
VH: QEQLVESGGGLVQPEGSLTLTCTASGFSFSSNYWMCWVRQAPGKGLEWIACIYTGGSGVTYYASWAKGRFTLSKTSSTTVTLQVTSLTAADTATYFCARDLVVVTSFNLWGQGTLVTVSS
VL: ALMMTQTPSPVSAAVGGTVTINCQASEDIYSNLAWYQQKPGQPPKLLIYSASTLASGVPSRFSGSGSGTEFTLTISGVQSDDAATYYCLGVCTDISVDDVYNSFGGGTEVVVK
notes: rabbit monoclonal antibody; also called P013.A.00043.D08
